Here are results for twelve molecules from PMC10412584, “Molecular reshaping of phage-displayed Interleukin-2 at beta chain receptor interface to obtain potent super-agonists with improved developability profiles” (Communications Biology, 2023).

First the molecules themselves.
B1: H9(K35E)/Fc (Fc fusion, human, UniProt P60568 21-153, looked up)
chain: APTSSSTKKTQLQLEHLLLDLQMILNGINNYKNPELTRMLTFKFYMPKKATELKHLQCLEEELKPLEEVLNLAQSKNFHFDPRDVVSNINVFVLELKGSETTFMCEYADETATIVEFLNRWITFCQSIISTLT
notes: human interleukin-2 with the mutations of H9 superkine and K35E; the first two aa (Ala-Pro) are present in the Fc constructs; Heavily aggregated in SEC; also called H9(K35)/Fc; fusion protein based on H9 superkine; source: HEK-293T adapted to suspension, transient transfection, purified from supernatant (protein A)
B2: 81DPQDLIE87 + I92L(K35E)/Fc (Fc fusion, human, UniProt P60568 21-153, looked up)
chain: APTSSSTKKTQLQLEHLLLDLQMILNGINNYKNPELTRMLTFKFYMPKKATELKHLQCLEEELKPLEEVLNLAQSKNFHLDPQDLIENINVLVLELKGSETTFMCEYADETATIVEFLNRWITFCQSIISTLT
notes: human interleukin-2 whose segment 81-87 reads DPQDLIE, with I92L; the first two aa (Ala-Pro) are present in the Fc constructs; source: HEK-293T adapted to suspension, transient transfection, purified from supernatant (protein A)
B3: H9(K35E)/Fc in which F92 was replaced by the original Ile (Fc fusion, human, UniProt P60568 21-153, looked up)
chain: APTSSSTKKTQLQLEHLLLDLQMILNGINNYKNPELTRMLTFKFYMPKKATELKHLQCLEEELKPLEEVLNLAQSKNFHFDPRDVVSNINVIVLELKGSETTFMCEYADETATIVEFLNRWITFCQSIISTLT
notes: human interleukin-2 with the H9 mutations except that residue 92 is the original Ile; the first two aa (Ala-Pro) are present in the Fc constructs; also called F92I-containing protein; source: HEK-293T adapted to suspension, transient transfection, purified from supernatant (protein A)
B4: 81DPQDLIE87(K35E)/Fc (Fc fusion, human, UniProt P60568 21-153, looked up)
chain: APTSSSTKKTQLQLEHLLLDLQMILNGINNYKNPELTRMLTFKFYMPKKATELKHLQCLEEELKPLEEVLNLAQSKNFHLDPQDLIENINVIVLELKGSETTFMCEYADETATIVEFLNRWITFCQSIISTLT
notes: human interleukin-2 whose segment 81-87 reads DPQDLIE; the first two aa (Ala-Pro) are present in the Fc constructs; source: HEK-293T adapted to suspension, transient transfection, purified from supernatant (protein A)
B5: 80FDPADVVE87 + I92L(K35E)/Fc (Fc fusion, human, UniProt P60568 21-153, looked up)
chain: APTSSSTKKTQLQLEHLLLDLQMILNGINNYKNPELTRMLTFKFYMPKKATELKHLQCLEEELKPLEEVLNLAQSKNFHFDPADVVENINVLVLELKGSETTFMCEYADETATIVEFLNRWITFCQSIISTLT
notes: the first two aa (Ala-Pro) are present in the Fc constructs; source: HEK-293T adapted to suspension, transient transfection, purified from supernatant (protein A)
B6: 80FDPHDVVE87 + I92L + V93L(K35E)/Fc (Fc fusion, human, UniProt P60568 21-153, looked up)
chain: APTSSSTKKTQLQLEHLLLDLQMILNGINNYKNPELTRMLTFKFYMPKKATELKHLQCLEEELKPLEEVLNLAQSKNFHFDPHDVVENINVLLLELKGSETTFMCEYADETATIVEFLNRWITFCQSIISTLT
notes: the first two aa (Ala-Pro) are present in the Fc constructs; also called fusion protein derived from phage clone 1A; source: HEK-293T adapted to suspension, transient transfection, purified from supernatant (protein A)
B7: 80VPPEDLIA87 + I92L(K35E)/Fc (Fc fusion, human, UniProt P60568 21-153, looked up)
chain: APTSSSTKKTQLQLEHLLLDLQMILNGINNYKNPELTRMLTFKFYMPKKATELKHLQCLEEELKPLEEVLNLAQSKNFHVPPEDLIANINVLVLELKGSETTFMCEYADETATIVEFLNRWITFCQSIISTLT
notes: as for B5
B8: H9(K35E)/Fc in which F92 was replaced by the phage-selected Leu (Fc fusion, human, UniProt P60568 21-153, looked up)
chain: APTSSSTKKTQLQLEHLLLDLQMILNGINNYKNPELTRMLTFKFYMPKKATELKHLQCLEEELKPLEEVLNLAQSKNFHFDPRDVVSNINVLVLELKGSETTFMCEYADETATIVEFLNRWITFCQSIISTLT
notes: human interleukin-2 with the H9 mutations except that residue 92 is Leu; the first two aa (Ala-Pro) are present in the Fc constructs; also called F92L-containing protein; source: HEK-293T adapted to suspension, transient transfection, purified from supernatant (protein A)
B9: 81VPEDLIE87 + I92L(K35E)/Fc (Fc fusion, human, UniProt P60568 21-153, looked up)
chain: APTSSSTKKTQLQLEHLLLDLQMILNGINNYKNPELTRMLTFKFYMPKKATELKHLQCLEEELKPLEEVLNLAQSKNFHLVPEDLIENINVLVLELKGSETTFMCEYADETATIVEFLNRWITFCQSIISTLT
notes: human interleukin-2 whose segment 81-87 reads VPEDLIE, with I92L; the first two aa (Ala-Pro) are present in the Fc constructs; source: HEK-293T adapted to suspension, transient transfection, purified from supernatant (protein A)
B10: 80VPPEDLIE87 + I92L(K35E)/Fc (Fc fusion, human, UniProt P60568 21-153, looked up)
chain: APTSSSTKKTQLQLEHLLLDLQMILNGINNYKNPELTRMLTFKFYMPKKATELKHLQCLEEELKPLEEVLNLAQSKNFHVPPEDLIENINVLVLELKGSETTFMCEYADETATIVEFLNRWITFCQSIISTLT
notes: the first two aa (Ala-Pro) are present in the Fc constructs; also called variant 2B further optimized by incorporating S87E; source: HEK-293T adapted to suspension, transient transfection, purified from supernatant (protein A)
B11: 81VPEDLIE87(K35E)/Fc (Fc fusion, human, UniProt P60568 21-153, looked up)
chain: APTSSSTKKTQLQLEHLLLDLQMILNGINNYKNPELTRMLTFKFYMPKKATELKHLQCLEEELKPLEEVLNLAQSKNFHLVPEDLIENINVIVLELKGSETTFMCEYADETATIVEFLNRWITFCQSIISTLT
notes: human interleukin-2 whose segment 81-87 reads VPEDLIE; the first two aa (Ala-Pro) are present in the Fc constructs; source: HEK-293T adapted to suspension, transient transfection, purified from supernatant (protein A)
B12: 80FDPEDVVE87 + I92L(K35E)/Fc (Fc fusion, human, UniProt P60568 21-153, looked up)
chain: APTSSSTKKTQLQLEHLLLDLQMILNGINNYKNPELTRMLTFKFYMPKKATELKHLQCLEEELKPLEEVLNLAQSKNFHFDPEDVVENINVLVLELKGSETTFMCEYADETATIVEFLNRWITFCQSIISTLT
notes: as for B5

One test has as its target T1, recombinant fusion protein comprising human IL-2R beta subunit extracellular domain and mouse IgG2a Fc (human, UniProt P14784 27-240).
T1 construct: human IL-2 receptor beta subunit (CD122), extracellular domain; also called IL-2R beta/mFc; IL-2R beta ECD/mouse IgG2a Fc
T1 sequence (looked up): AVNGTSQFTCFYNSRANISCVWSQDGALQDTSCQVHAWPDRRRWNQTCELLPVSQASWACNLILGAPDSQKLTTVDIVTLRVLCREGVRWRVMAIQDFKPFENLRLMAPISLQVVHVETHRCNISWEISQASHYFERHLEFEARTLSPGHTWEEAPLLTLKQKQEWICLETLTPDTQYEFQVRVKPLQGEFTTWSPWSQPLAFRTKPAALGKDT
The experiment in a line: SPR; Biacore T200; IL-2R beta ECD/mouse IgG2a Fc amine-coupled to a CM5 chip; Fc-fusion proteins 1-800 nmol/L injected at 15 µL/min in PBS with 0.05% Tween 20; single-cycle mode; global fit to the 1:1 model. The settings on record: both partners purified. Background: Surface plasmon resonance follows binding to a sensor surface in real time, without labels.
For B1, the “fold decrease of KD against IL-2(K35E)/Fc” value is approximately 25 fold and the off-rate constant (koff) was approximately 0.0003 s⁻¹.

Another test has as its target T1, recombinant fusion protein comprising …. The experiment in a line: ELISA; polyvinyl chloride plates coated with IL-2R beta ECD/mouse IgG2a Fc at 10 µg/mL in PBS; Fc-fusion proteins diluted in M-PBS, 1 h at RT; detected with anti-human IgG-HRP. The settings on record: both partners purified. Background: ELISA stands for enzyme-linked immunosorbent assay.
With B2, the binding result is given as “binds”. With B3, the binding result is listed as “binds”. As for B4, the binding result is “binds”.

With B5, the binding result is “binds”. In the case of B6, the binding result is reported as “binds”. Still for that read-out and setting: then B7, with “binds”. Same read-out and setting: then B8, with “binds”; and B9, with “binds”; and B10, with “binds”. Same read-out and setting: the value for B11 was “binds”. Consider B12, for which the binding result is “binds”.

As a reminder, the koff is the rate constant with which the complex falls apart.
